Source: paper PMC5405513, “Identification and biochemical characterization of the fructokinase gene family in Arabidopsis thaliana” (BMC Plant Biology, 2017)

Key:
Assay in all cases: coupled pyruvate kinase / lactate dehydrogenase assay, NADH oxidation at A340
Type in all cases: biochemical, Arabidopsis thaliana
Conditions in all cases: 50 mM Tris pH 7.5, 100 mM KCl, 10 mM MgCl2, 1 mM fructose, 10 mM phosphate, Michaelis-Menten fit
[1] = substrate: Nc1ncnc2c1ncn2[C@@H]1O[C@H](COP(=O)(O)OP(=O)(O)OP(=O)(O)O)[C@@H](O)[C@H]1O
Text: coupled pyruvate kinase / lactate dehydrogenase assay, NADH oxidation at A340 on FRK4

[2] = substrate: Nc1ncnc2c1ncn2[C@@H]1O[C@H](COP(=O)(O)OP(=O)(O)OP(=O)(O)O)[C@@H](O)[C@H]1O; remark: listed apart in the source
Text: coupled pyruvate kinase / lactate dehydrogenase assay, NADH oxidation at A340 on FRK6

[3] = substrate: Nc1ncnc2c1ncn2[C@@H]1O[C@H](COP(=O)(O)OP(=O)(O)OP(=O)(O)O)[C@@H](O)[C@H]1O; remark: listed apart in the source
Text: coupled pyruvate kinase / lactate dehydrogenase assay, NADH oxidation at A340 on FRK1

[4] = substrate: Nc1ncnc2c1ncn2[C@@H]1O[C@H](COP(=O)(O)OP(=O)(O)OP(=O)(O)O)[C@@H](O)[C@H]1O; remark: listed apart in the source
Text: coupled pyruvate kinase / lactate dehydrogenase assay, NADH oxidation at A340 on FRK3

[5] = substrate: Nc1ncnc2c1ncn2[C@@H]1O[C@H](COP(=O)(O)OP(=O)(O)OP(=O)(O)O)[C@@H](O)[C@H]1O; remark: listed apart in the source
Text: coupled pyruvate kinase / lactate dehydrogenase assay, NADH oxidation at A340 on FRK5

[6] = substrate: Nc1ncnc2c1ncn2[C@@H]1O[C@H](COP(=O)(O)OP(=O)(O)OP(=O)(O)O)[C@@H](O)[C@H]1O; remark: listed apart in the source
Text: coupled pyruvate kinase / lactate dehydrogenase assay, NADH oxidation at A340 on FRK2

B1: FRK4 (Arabidopsis thaliana) (protein)
chain: MANTPLIVSFGEMLIDFVPDTSGVSLAESTGFLKAPGGAPANVACAITKLGGKSAFIGKFGDDEFGHMLVNILKKNGVNSEGVCFDTNARTALAFVTLKKDGEREFMFYRNPSADMLLKESELNKDLIKKAKIFHYGSISLISEPCRTAHMAAMKTAKDAGVLLSYDPNVRLPLWPSTEAAIEGIKSIWNEADIIKVSDDEVTFLTRGDAEKDDVVLSLMHDKLKLLIVTDGEKGCRYYTKKFKGRVPGYAVKAVDTTGAGDSFVGAFLVSLGKDGSILDDEGKLKEALAFANACGAVCTTQKGAIPALPTPADAQKLMKSKSK
Km [1]: 95 ± 7.9 µM
kcat [1]: 11.1 s⁻¹

B2: FRK6 (Arabidopsis thaliana) (protein)
chain: MTSSNGDNKGLVVSFGEMLIDFVPTESGVSLSESSGFLKAPGGAPANVAIAVSRLGGRAAFVGKLGDDEFGHMLAGILRKNDVDDQGINFDKGARTALAFVTLRSDGEREFMFYRNPSADMLLRPDELNLELIRSAKVFHYGSISLITEPCRSAHMKAMEVAKEAGALLSYDPNLREPLWPSPEEARKQIMSIWDKADIIKVSDVELEFLTGNKTIDDETAMSLWHPNLKLLLVTLGENGCRYYTKDFHGSVETFHVDAVDTTGAGDSFVGALLNQIVDDQSVLEEEERLRKVLRFANACGAITTTKKGAIPALPTDCEALSFLKIQVE
Km [2]: 160 ± 21 µM
kcat [2]: 12.8 s⁻¹

B3: FRK1 (Arabidopsis thaliana) (protein)
chain: MGEDAISGNLKNLTIDTRDSETLVVCFGEMLIDFVPTVGGVSLAEAPAFKKAPGGAPANVAVGVSRLGGSSAFIGKVGDDEFGRMLADILRLNNVDNSGMRFDHNARTALAFVTLRGDGEREFLFFRHPSADMLLLESELDKNLIQKAKIFHYGSISLIEEPCRSTQLVAMKIAKAAGSLLSYDPNLRLPLWPSEEAARKEIMSIWNLADVIKISEDEITFLTGGDDPYDDDVVLQKLFHPNLKLLVVSEGPNGCRYYTQEFKGRVGGVKVKPVDTTGAGDAFVSGLLNSLASDLTLLKDEKKLREALLFANACGAITVTERGAIPAMPSMDAVQDLLSSTRS
Km [3]: 52 ± 7.8 µM
kcat [3]: 14.2 s⁻¹

B4: FRK3 (Arabidopsis thaliana) (protein)
chain: SNLKGRALSSDGSTQESPYVVCFGEMLIDFVPTTSGLSLADAPAFKKAPGGAPANVAVGIARLGGSSAFIGKVGEDEFGYMLANILKDNNVNNDGMRFDPGARTALAFVTLTNEGEREFMFYRNPSADMLLEESELDFDLIKKAKIFHYGSISLITEPCKSAHISAAKAAKEAGVILSYDPNLRLPLWPSADNAREEILSIWETADIIKISEEEIVFLTKGEDPYDDNVVRKLFHPKLKLLLVTEGPEGCRYYTKDFSGRVHGLKVDVVDTTGAGDAFVAGILSQLANDLSLLQDEERLREALMFANACGALTVKVRGAIPALPTKEAVHEALLKAVV
Km [4]: 52 ± 9.8 µM
kcat [4]: 14.3 s⁻¹

B5: FRK5 (Arabidopsis thaliana) (protein)
chain: MASSTGEKGLIVSFGEMLIDFVPTVSGVSLSESPGFLKAPGGAPANVAIAVSRLGGRAAFVGKLGDDDFGHMLAGILRKNGVDDQGINFDEGARTALAFVTLRSDGEREFMFYRNPSADMLLRPDELNLELIRSAKVFHYGSISLITEPCRSAHMKAMEVAKEAGALLSYDPNLREPLWPSPEEARTQIMSIWDKADIIKVSDVELEFLTENKTMDDKTAMSLWHPNLKLLLVTLGEKGCTYFTKKFHGSVETFHVDAVDTTGAGDSFVGALLQQIVDDQSVLEDEARLRKVLRFANACGAITTTKKGAIPALPTDIEALSFLKDQKKRQTNLKFSKWCCTASPC
Km [5]: 180 ± 57 µM
kcat [5]: 4.8 s⁻¹

B6: FRK2 (Arabidopsis thaliana) (protein)
chain: MASNGDKGLIVSFGEMLIDFVPTESGVSLAEAPGFLKAPGGAPANVAIAVSRLGGRSAFVGKLGDDEFGHMLAGILRKNGVDDQGINFDTGARTALAFVTLRADGDREFMFYRNPSADMLLRPDELNLDLIRSAKVFHYGSISLIVEPCRSAHLKAMEVAKEAGALLSYDPNLREPLWPSKEEAKTQIMSIWDKAEIIKVSDVELEFLTGSNKIDDETALTLWHPNLKLLLVTLGEKGCRYYTKTFKGAVDPFHVNAVDTTGAGDSFVGALLNQIVDDRSVLEDEERLRKVLRFANACGAITTTKKGAIPALPSDAEVRSFLEKK
Km [6]: 85 ± 8.7 µM
kcat [6]: 10.3 s⁻¹
